From patent US20230062308A1, “TREATMENT OF CK8 POSITIVE CANCERS IN RELATION WITH K-RAS GENE STATUS” (INTERNATIONAL - DRUG - DEVELOPMENT - BIOTECH, priority 2017, published 2023)

Test system: Human HAN larynx cell line BICR18
Experiment: In vivo tumour growth, HAN CDX model (larynx cell line BICR18)
Settings: BICR18 s.c. in SCID mice; HzR022 (D-A10) 10 mg/kg i.p. BIW × 3; cisplatin 2.5 mg/kg i.p. QW × 3
Description: Human HAN larynx cell line BICR18 was subcutaneously injected in SCID mice, with a concentration of 1.10^6 cells per injection (200 μL). Mice were randomized when the tumours reached a mean volume of about 100 mm^3 for the 9 groups (total 45 mice). […] The endpoint was defined by animal ethics as a tumour diameter of >18 mm, significant weight loss or alteration of animal well-being. In order to assess the effectiveness of the compounds on tumourigenesis, tumour volume was measured two times a week. The size of the primary tumours were measured using calipers and the tumour volume (TV) was extrapolated to a sphere using the formula TV= 4/3π×r^3, by calculating the mean radius from the two measurements. The median and standard deviation were also calculated for each group. Median is preferred to mean in order to exclude the extreme values. MAb treatment was administered by intraperitoneal injection twice a week during three weeks at 10 or 1 mg/kg doses. The cisplatin (Myland) treatment was administered by intraperitoneal injection once per week during three weeks at 1, 2.5 or 5 mg/kg doses. The product was prepared in accordance with the sponsor's guidelines, i.e. diluted in PBS. Mice were sacrificed when the tumours reached a maximum volume of 1600 mm^3. […] The t-test (two-tailed test) was performed on the tumour volume values (mm^3) measured on the day of sacrifice.

B1: HzR022 (D-A10): humanized anti-CK8 monoclonal antibody D-A10; VL SEQ ID NO: 14, VH SEQ ID NO: 15 (antibody, V domains shown)
VH: EVQLVESGGGLVQPGGSLRLSCAASGFTFSSYWMSWVRQAPGKGLVWVSDINSDGSSTKYADSVKGRFTISRDNAKNTLYLQMNSLRAEDTAVYYCIAHYSGGGFAYWGQGTLVTVSS
VL: DIVMTQAPLSLPVTPGEPASISCRSSKSLLYSNGYNYLYWFLQKPGQSPQLLIYYMSNLASGVPDRFSGSGSGTDFTLKISRVEAEDVGVYYCMQSLEYPFTFGQGTKLEIK
modifications: VHHzD-A10; VLHzD-A10
  tumour growth control (tumour volume, FIG. 3): did trigger tumour growth control
